Consider five substances from PMC4519966.

The data set is described as follows: Western blot (data not shown). Conditions: glycan lost; control: wild-type NOS1AP.

Consider NOS1AP (CAPON): S47A, for which the expression_or_secretion entry was “no change”.

As to NOS1AP (CAPON): S183A, the expression_or_secretion result is recorded as “no change”.

Regarding NOS1AP (CAPON): S204A, the expression_or_secretion result is “no change”.

As to NOS1AP (CAPON): S269A, the expression_or_secretion entry was “no change”.

For the substance NOS1AP (CAPON): S271A, the expression_or_secretion entry is “no change”.
